Measured values as given in the supplement of paper PMC10567573.

B1: PBXIP1 (parent)
chain: FGEDGIFRHDRLRFRDFVDALEDS
B2: C8orf76 (parent)
chain: YCAKLCEPQWFYEETESSDDVEVL
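Also: lentivirally expressed fusions sorted by FACS into six bins by GFP to DsRed ratio, PSI derived from sequencing read proportions per bin multiplied by bin number.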

Variants of: B1
Test: protein stability index of a GFP-peptide fusion (GPS, HEK-293T) (PSI 1-6); higher = more stable
Details: c terminus: a fixed tail appended
Work on FGEEGIFRHDRLRFRDFVDALEDS [D4E] yielded a protein stability index of 3.08. FGEDGIFRHCRLRFRDFVDALEDS [D10C] showed a protein stability index of 1.85. Variant FGEDGIFRHARLRFRDFVDALEDS [D10A] has a protein stability index of 1.96. FGEDGIFRHERLRFRDFVDALEDS [D10E] gave a protein stability index of 2.63. For FGEDGIFRHFRLRFRDFVDALEDS [D10F], the protein stability index was 2.16. Work on FGEDGIARHDRLRFRDFVDALEDS [F7A] yielded a protein stability index of 3.42. Work on FGEDGITRHDRLRFRDFVDALEDS [F7T] yielded a protein stability index of 2.71. Work on FGEDGIRRHDRLRFRDFVDALEDS [F7R] yielded a protein stability index of 2.84. FGEDGIERHDRLRFRDFVDALEDS [F7E] showed a protein stability index of 4.84. For FGEDGIWRHDRLRFRDFVDALEDS [F7W], the protein stability index was 1.95. Work on FGEDGIMRHDRLRFRDFVDALEDS [F7M] yielded a protein stability index of 4.07. With FGEDGICRHDRLRFRDFVDALEDS [F7C] the protein stability index was 2.95. With FGEDGINRHDRLRFRDFVDALEDS [F7N] the protein stability index was 4.02. FGEDGILRHDRLRFRDFVDALEDS [F7L] showed a protein stability index of 3.13. Variant FGEDGIHRHDRLRFRDFVDALEDS [F7H] has a protein stability index of 3.91. FGEDGIYRHDRLRFRDFVDALEDS [F7Y] showed a protein stability index of 2.98. With FGEDGIKRHDRLRFRDFVDALEDS [F7K] the protein stability index was 3.38. FGEDGIIRHDRLRFRDFVDALEDS [F7I] gave a protein stability index of 3.51. Work on FGEDGIPRHDRLRFRDFVDALEDS [F7P] yielded a protein stability index of 3.88. With FGEDGISRHDRLRFRDFVDALEDS [F7S] the protein stability index was 2.97. With FGEDGIQRHDRLRFRDFVDALEDS [F7Q] the protein stability index was 3.36. FGEDGIDRHDRLRFRDFVDALEDS [F7D] showed a protein stability index of 4.33. With FGEDGIVRHDRLRFRDFVDALEDS [F7V] the protein stability index was 3.72. In the case of FGEDGIGRHDRLRFRDFVDALEDS [F7G], the protein stability index is reported as 3.7. FGEDGIFIHDRLRFRDFVDALEDS [R8I] showed a protein stability index of 3.09. Variant FGEDGIFYHDRLRFRDFVDALEDS [R8Y] has a protein stability index of 2.46. In the case of FGEDGIFMHDRLRFRDFVDALEDS [R8M], the protein stability index is reported as 3.06. With FGEDGIFQHDRLRFRDFVDALEDS [R8Q] the protein stability index was 2.97. FGEDGIFCHDRLRFRDFVDALEDS [R8C] gave a protein stability index of 2.51. FGEDGIFPHDRLRFRDFVDALEDS [R8P] showed a protein stability index of 3.8. FGEDGIFTHDRLRFRDFVDALEDS [R8T] showed a protein stability index of 2.48. FGEDGIFEHDRLRFRDFVDALEDS [R8E] gave a protein stability index of 4.23. FGEDGIFVHDRLRFRDFVDALEDS [R8V] showed a protein stability index of 2.93. Work on FGEDGIFGHDRLRFRDFVDALEDS [R8G] yielded a protein stability index of 2.93. Variant FGEDGIFDHDRLRFRDFVDALEDS [R8D] has a protein stability index of 3.74. With FGEDGIFLHDRLRFRDFVDALEDS [R8L] the protein stability index was 2.55. Work on FGEDGIFWHDRLRFRDFVDALEDS [R8W] yielded a protein stability index of 2.05. Variant FGEDGIFNHDRLRFRDFVDALEDS [R8N] has a protein stability index of 3.16. For FGEDGIFKHDRLRFRDFVDALEDS [R8K], the protein stability index was 2.23. Work on FGEDGIFAHDRLRFRDFVDALEDS [R8A] yielded a protein stability index of 3.29. FGEDGIFSHDRLRFRDFVDALEDS [R8S] showed a protein stability index of 2.85. Work on FGEDGIFFHDRLRFRDFVDALEDS [R8F] yielded a protein stability index of 1.95. Work on FGEDGIFHHDRLRFRDFVDALEDS [R8H] yielded a protein stability index of 2.65. For FGEDGIFRIDRLRFRDFVDALEDS [H9I], the protein stability index was 2.41. In the case of FGEDGIFRCDRLRFRDFVDALEDS [H9C], the protein stability index is reported as 2.47. Variant FGEDGIFRFDRLRFRDFVDALEDS [H9F] has a protein stability index of 2.26. With FGEDGIFRVDRLRFRDFVDALEDS [H9V] the protein stability index was 2.82. With FGEDGIFRRDRLRFRDFVDALEDS [H9R] the protein stability index was 2.39. FGEDGIFRTDRLRFRDFVDALEDS [H9T] showed a protein stability index of 2.4. Work on FGEDGIFRYDRLRFRDFVDALEDS [H9Y] yielded a protein stability index of 2.46. In the case of FGEDGIFRQDRLRFRDFVDALEDS [H9Q], the protein stability index is reported as 2.42. FGEDGIFRWDRLRFRDFVDALEDS [H9W] gave a protein stability index of 2.04. FGEDGIFRNDRLRFRDFVDALEDS [H9N] gave a protein stability index of 3.28. For FGEDGIFRGDRLRFRDFVDALEDS [H9G], the protein stability index was 3.19. In the case of FGEDGIFRADRLRFRDFVDALEDS [H9A], the protein stability index is reported as 2.84. In the case of FGEDGIFRMDRLRFRDFVDALEDS [H9M], the protein stability index is reported as 2.73. Work on FGEDGIFRSDRLRFRDFVDALEDS [H9S] yielded a protein stability index of 2.79. With FGEDGIFREDRLRFRDFVDALEDS [H9E] the protein stability index was 3.5. Variant FGEDGIFRLDRLRFRDFVDALEDS [H9L] has a protein stability index of 2.4. Variant FGEDGIFRKDRLRFRDFVDALEDS [H9K] has a protein stability index of 2.08. Variant FGEDGIFRDDRLRFRDFVDALEDS [H9D] has a protein stability index of 3.76. FGEDGIFRPDRLRFRDFVDALEDS [H9P] showed a protein stability index of 2.88. Work on FGGDGIFRHDRLRFRDFVDALEDS [E3G] yielded a protein stability index of 2.11. FGWDGIFRHDRLRFRDFVDALEDS [E3W] showed a protein stability index of 2.18. In the case of FGPDGIFRHDRLRFRDFVDALEDS [E3P], the protein stability index is reported as 2.28. For FGCDGIFRHDRLRFRDFVDALEDS [E3C], the protein stability index was 2.17. With FGLDGIFRHDRLRFRDFVDALEDS [E3L] the protein stability index was 2.44. Variant FGQDGIFRHDRLRFRDFVDALEDS [E3Q] has a protein stability index of 2.91. FGFDGIFRHDRLRFRDFVDALEDS [E3F] showed a protein stability index of 2.18. Variant FGADGIFRHDRLRFRDFVDALEDS [E3A] has a protein stability index of 2.75. Variant FGVDGIFRHDRLRFRDFVDALEDS [E3V] has a protein stability index of 2.05. FGMDGIFRHDRLRFRDFVDALEDS [E3M] gave a protein stability index of 2.45. FGTDGIFRHDRLRFRDFVDALEDS [E3T] showed a protein stability index of 2.28. FGSDGIFRHDRLRFRDFVDALEDS [E3S] gave a protein stability index of 2.02. FGHDGIFRHDRLRFRDFVDALEDS [E3H] showed a protein stability index of 2.89. For FGIDGIFRHDRLRFRDFVDALEDS [E3I], the protein stability index was 2.91. FGYDGIFRHDRLRFRDFVDALEDS [E3Y] gave a protein stability index of 3.04. With FGRDGIFRHDRLRFRDFVDALEDS [E3R] the protein stability index was 3.02. FGNDGIFRHDRLRFRDFVDALEDS [E3N] gave a protein stability index of 1.99. Variant FGDDGIFRHDRLRFRDFVDALEDS [E3D] has a protein stability index of 3.01. With FGKDGIFRHDRLRFRDFVDALEDS [E3K] the protein stability index was 2.52.

Variants of: B2
Test: as above
Details: c terminus: a fixed tail appended
For YCAKLCEPQWFYEETESSDDVEVW [L24W], the protein stability index was 1.85. With YCAKLCEPQWFYEETESSDDVEVT [L24T] the protein stability index was 2.11. With YCAKLCEPQWFYEETESSDDVEVI [L24I] the protein stability index was 2.73. YCAKLCEPQWFYEETESSDDVEVP [L24P] gave a protein stability index of 2.69. YCAKLCEPQWFYEETESSDDVEVN [L24N] gave a protein stability index of 2.36. In the case of YCAKLCEPQWFYEETESSDDVEVY [L24Y], the protein stability index is reported as 1.76. For YCAKLCEPQWFYEETESSDDVEVK [L24K], the protein stability index was 3. YCAKLCEPQWFYEETESSDDVEVR [L24R] gave a protein stability index of 2.78. Work on YCAKLCEPQWFYEETESSDDVEVH [L24H] yielded a protein stability index of 2.15. For YCAKLCEPQWFYEETESSDDVEVQ [L24Q], the protein stability index was 1.86. In the case of YCAKLCEPQWFYEETESSDDVEVM [L24M], the protein stability index is reported as 2.65. YCAKLCEPQWFYEETESSDDVEVS [L24S] gave a protein stability index of 2.66. With YCAKLCEPQWFYEETESSDDVEVV [L24V] the protein stability index was 2.31.
